Data on four molecules can be found in patent US20090208936, “IDENTIFICATION OF MOLECULAR INTERACTIONS AND THERAPEUTIC USES THEREOF” (Univeristy of Florida Research Foundations Inc., published 2009).

Data set [1] concerns the target T1, alpha-thrombin (Homo sapiens, UniProt P00734;P00734 P00734:328-363,P00734:364-622). As to the kind of experiment: FP; anisotropy increased more than 30% at 1:1; 20 mM Tris-HCl pH 7.6, 50 mM NaCl, 5% glycerol.
Data set [2] concerns the target T1, alpha-thrombin. As to the kind of experiment: FRET quenching slightly larger than FQ-15Ap; Exosite II; not displaced by HirF or AHT.
Data set [3] deals with antithrombin III (AT3) (Homo sapiens, UniProt P01008 P01008:33-464). As to the kind of experiment: FRET control without thrombin, no fluorescence change. As to conditions: tags: Haematologic Technologies Inc; label: 5'-6-FAM, 3'-Dabcyl; G4.
Data set [4] addresses T2, sulfated hirudin fragment 54-65 (HirF) (UniProt P01050 P01050:54-65, not fully specified).
T2 chain: GDFEEIPEEYLQ
The description is as above. The following applies: tags: Sigma-Aldrich; peptide with sulfated Tyr; label: 5'-6-FAM, 3'-Dabcyl; G4.

Data set [5] has as its target T1, alpha-thrombin. As to the kind of experiment: FP; anisotropy bait complex; slowly displaced by AT3.

Sequence of antithrombin III (AT3) (P01008 33-464, one chain of several): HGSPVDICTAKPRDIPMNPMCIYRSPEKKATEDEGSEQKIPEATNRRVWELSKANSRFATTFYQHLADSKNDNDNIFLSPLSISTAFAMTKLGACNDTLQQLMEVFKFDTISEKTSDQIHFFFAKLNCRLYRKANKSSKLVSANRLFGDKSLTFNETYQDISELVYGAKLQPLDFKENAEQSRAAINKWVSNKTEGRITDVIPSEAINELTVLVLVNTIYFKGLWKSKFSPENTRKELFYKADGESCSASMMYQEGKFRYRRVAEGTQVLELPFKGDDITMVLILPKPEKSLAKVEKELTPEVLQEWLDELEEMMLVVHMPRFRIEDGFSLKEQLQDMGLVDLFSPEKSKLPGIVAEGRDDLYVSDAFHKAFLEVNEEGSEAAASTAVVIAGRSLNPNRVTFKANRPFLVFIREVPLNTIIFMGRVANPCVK

On to GGTTGGTGTGGTTGG (ssDNA) [T-15Ap], for which the binding result in data set [1] is “binds”. For ACCCGTGGTAGGGTAGGATGGGGTGGT (ssDNA) [FQ-27Ap], the binding result in data set [2] is reported as “binds”. With GGTTGGTGTGGTTGG (ssDNA) [FQ-15Ap], the binding result in data set [3] and in data set [4] was “no binding” throughout. In the case of ACCCGTGGTAGGGTAGGATGGGGTGGT (ssDNA) [T-27Ap], in data set [5], the binding result was “binds”.
